Measurements reported in the Human Domainome abundance scans (Beltran et al. 2025).

B1: SWI/SNF complex subunit SMARCC1, residues 620 to 663; numbered along this chain, Q92922 (parent)
chain: GREWTEQETLLLLEALEMYKDDWNKVSEHVGSRTQDECILHFLR

Variants of: B1
Experiment: abundance fitness (aPCA) (normalised: wild type 0, dead -1); higher = more abundant; growth selection in yeast, the domain comes from the species named
Conditions: Homo sapiens

Abundance fitness, by site and new letter:
L12: P -0.709; A -0.213; G 0.009; R -0.718; T -0.602; D -0.259; M -0.32; V -0.341; C -0.401; Y -0.103; S -0.651; F 0.016; E -0.129; Q -0.372; N -0.938; K -0.428; H -0.413
N24: D 0.024; M 0.065; S 0.119; T -0.029; L 0.013; I -0.13; G 0.075; P 0.045; Y -0.097; Q 0.173; A 0.027; R -0.032; K 0.155; C -0.001; W -0.168; E 0.042; H 0.006
W23: H -0.696; K -0.503; N -0.579; A -0.712; L -0.528; I -0.255; P -0.535; M -0.32; T -0.786; V -0.783; C -0.48; E -0.577; G -0.631; D -0.374; F -0.186
E28: M -0.8; T -0.084; I -0.16; H -0.723; V -0.311; K -0.269; L -0.31; Q -0.181; Y -0.404; D 0.373; N -0.21; W 0.08; R -0.013; A -0.434; C -0.2; G -0.112
T9: F 0.004; C -0.015; L -0.044; I 0.264; D -0.075; W -0.595; E -0.037; G -0.098; K 0.158; R 0.252; P -0.449; M 0.037; Y -0.022; Q 0.319; S -0.01; A -0.085; N -0.04; H -0.023
L13: V -0.126; Y -0.229; H -0.166; A 0.285; D 0.01; S -0.259; R 0.127; I 0.044; T 0.531; W -0.314; Q -0.197
L10: C 0.243; A -0.019; E 0.082; P -0.287; N -0.247; V -0.04; H 0.084; W -0.137; Y -0.407; Q 0.251; F -0.008; M -0.21; R 0.158; I -0.016; S 0.147; K 0.176; T 0.237
M18: Q 0.056; C -0.158; A 0.115; R 0.142; F -0.1; N -0.018; P -0.583; Y -0.129; H -0.04; I -0.264; G -0.24; D -0.097; S -0.168; V -0.002; K -0.076; E -0.135; W -0.2; T 0.1; L 0.063
E14: Q -0.045; M -0.267; A 0.007; I -0.97; H -0.311; V -0.552; R -0.28; T -0.18; S -0.27; C -0.684; N -0.164; D -0.177; K -0.006; L -0.549; G -0.27; P -1.15; Y -0.428
E8: Y -1.21
Y19: E -0.216; D -0.218; H 0.062; W -0.081; K -0.263; Q -0.423; T -0.298; I -0.693; G -0.108; L -0.776; R -0.55; M -0.62; C 0.09; P -0.952; S -0.362; V -0.69
K25: N -0.245; D -0.331; M 0.194; L 0.072; S -0.011; E -0.14; T -0.129; P -0.377; Q -0.122; A 0.091; G -0.038; H -0.045; I -0.426; R 0.072; Y -0.473; C -0.064; W -0.562
K20: E -0.085; D -0.062; R -0.234; L -0.618; C -0.375; S -0.2; I -0.019; P 0.058; A -0.139; V -0.123; M -0.118; W -0.737; H 0.021; G -0.188; F -0.226; Q -0.278; T -0.14; N -0.105
H29: I -0.469; P -0.796; S -0.344; M -0.209; G -0.803; C -0.382; E -0.551; N -0.173; L -0.264; Q -0.11; F -0.201; R -0.153; T -0.419
S27: L -0.375; N -0.204; R 0.01; E 0.105; F -0.516; C -0.119; G 0.056; A 0.168; Q 0.246; K 0.145; M -0.248; Y -0.305; W -0.56; D -0.558; P -0.319; H 0.063; I -0.149; V 0.039
L11: N -0.304; W -0.258; D -0.19; P -0.58; K 0.021; I -0.29; S 0.024; V -0.064; R -0.139; T 0.016; E -0.281; M 0.138; C -0.521; F -0.096; G -0.154; A -0.134
D22: H -0.264; Y -0.714; T -0.581; L -0.44; E -0.017; C -0.122; Q -0.112; G -0.419; S 0.04; A -0.447; I -0.733; V -0.526
A15: D -0.562; Q -0.72; F -0.616; R -0.82; V -0.886; P -1.19; G 0.03; S -0.043; H -0.707; E -0.716; Y -0.746; K -0.925; L -0.926
D21: A -0.066; I -0.601; N 0.227; E 0.225; G -0.046; W -0.578; H 0.102; T -0.17; P 0.019; S -0.078; R 0.268; V -0.419; M -0.363; Q 0.067; K 0.294
E17: G -0.213; S -0.308; F -0.548; Q -0.033; C -0.763; V -0.503; A -0.087; D 0.054; R -0.007; M -0.722; W -0.716; H -0.357; K 0.139; I -0.553; T -0.175
L16: R 0.469; S 0.094; Y 0.334; I 0.079; P -0.77; H 0.303; V 0.224; N 0.136; C 0.197; G -0.05; M 0.235; Q 0.428; F -0.231; W 0.024; T 0.316; E 0.274; A 0.16; D -0.237
V26: C 0.543; R -0.424; N -0.533; Y -0.57; Q -0.533; P -0.919; A 0.006; H -0.683; W -0.494; I -0.051; T 0.029; E -0.406; G -0.686; L -0.513; D -0.768
